What all share (assay): co-immunoprecipitation from 293T cells: anti-HA IP, anti-V5 Western blot
For experiment [1], the target named is T1, DOCK2ΔN-HA (amino acid residue 505-1828 of DOCK2, HA tag at the C terminus) (mouse, UniProt Q8C3J5 505-1828).
T1 construct: Expressed in 293T cells; also called PcDNA DOCK2ΔN-HA

The next experiment deals with T2, DOCK2 SH3 mutant G32E-HA (mouse, UniProt Q8C3J5 1-1828).
T2 construct: Glycine at position 32 of DOCK2 is substituted to glutamic acid; HA tag at the C terminus; Expressed in 293T cells; also called PcDNA G32E-HA

The next experiment deals with T3, DOCK2 SH3 mutant P60E-HA (mouse, UniProt Q8C3J5 1-1828).
T3 construct: Proline at position 60 of DOCK2 is substituted to glutamic acid; HA tag at the C terminus; Expressed in 293T cells; also called PcDNA P60E-HA

The target in another experiment is T4, DOCK2 SH3 mutant F63E-HA (mouse, UniProt Q8C3J5 1-1828).
T4 construct: Phenylalanine at position 63 of DOCK2 is substituted to glutamic acid; HA tag at the C terminus; Expressed in 293T cells; also called PcDNA F63E-HA

The target in experiment [2] is T5, Tiam1 with HA tag at its C terminus (PCI Tiam1-HA) (mouse, UniProt Q60610 1-1591, limits assumed).
T5 construct: Expressed in 293T cells from the PCI vector; also called mouse Tiam1

The target in experiment [3] is T6, full length DOCK2 with HA tag at the C terminus (PcDNA DOCK2-HA) (mouse, UniProt Q8C3J5 1-1828).
T6 construct: Expressed in 293T cells from PcDNA/His max vector and tested in cell lysate by co-immunoprecipitation; also called Hch; mouse DOCK2
T6 sequence (Q8C3J5 other isoform, or with tags, fused parts or gaps limits assumed): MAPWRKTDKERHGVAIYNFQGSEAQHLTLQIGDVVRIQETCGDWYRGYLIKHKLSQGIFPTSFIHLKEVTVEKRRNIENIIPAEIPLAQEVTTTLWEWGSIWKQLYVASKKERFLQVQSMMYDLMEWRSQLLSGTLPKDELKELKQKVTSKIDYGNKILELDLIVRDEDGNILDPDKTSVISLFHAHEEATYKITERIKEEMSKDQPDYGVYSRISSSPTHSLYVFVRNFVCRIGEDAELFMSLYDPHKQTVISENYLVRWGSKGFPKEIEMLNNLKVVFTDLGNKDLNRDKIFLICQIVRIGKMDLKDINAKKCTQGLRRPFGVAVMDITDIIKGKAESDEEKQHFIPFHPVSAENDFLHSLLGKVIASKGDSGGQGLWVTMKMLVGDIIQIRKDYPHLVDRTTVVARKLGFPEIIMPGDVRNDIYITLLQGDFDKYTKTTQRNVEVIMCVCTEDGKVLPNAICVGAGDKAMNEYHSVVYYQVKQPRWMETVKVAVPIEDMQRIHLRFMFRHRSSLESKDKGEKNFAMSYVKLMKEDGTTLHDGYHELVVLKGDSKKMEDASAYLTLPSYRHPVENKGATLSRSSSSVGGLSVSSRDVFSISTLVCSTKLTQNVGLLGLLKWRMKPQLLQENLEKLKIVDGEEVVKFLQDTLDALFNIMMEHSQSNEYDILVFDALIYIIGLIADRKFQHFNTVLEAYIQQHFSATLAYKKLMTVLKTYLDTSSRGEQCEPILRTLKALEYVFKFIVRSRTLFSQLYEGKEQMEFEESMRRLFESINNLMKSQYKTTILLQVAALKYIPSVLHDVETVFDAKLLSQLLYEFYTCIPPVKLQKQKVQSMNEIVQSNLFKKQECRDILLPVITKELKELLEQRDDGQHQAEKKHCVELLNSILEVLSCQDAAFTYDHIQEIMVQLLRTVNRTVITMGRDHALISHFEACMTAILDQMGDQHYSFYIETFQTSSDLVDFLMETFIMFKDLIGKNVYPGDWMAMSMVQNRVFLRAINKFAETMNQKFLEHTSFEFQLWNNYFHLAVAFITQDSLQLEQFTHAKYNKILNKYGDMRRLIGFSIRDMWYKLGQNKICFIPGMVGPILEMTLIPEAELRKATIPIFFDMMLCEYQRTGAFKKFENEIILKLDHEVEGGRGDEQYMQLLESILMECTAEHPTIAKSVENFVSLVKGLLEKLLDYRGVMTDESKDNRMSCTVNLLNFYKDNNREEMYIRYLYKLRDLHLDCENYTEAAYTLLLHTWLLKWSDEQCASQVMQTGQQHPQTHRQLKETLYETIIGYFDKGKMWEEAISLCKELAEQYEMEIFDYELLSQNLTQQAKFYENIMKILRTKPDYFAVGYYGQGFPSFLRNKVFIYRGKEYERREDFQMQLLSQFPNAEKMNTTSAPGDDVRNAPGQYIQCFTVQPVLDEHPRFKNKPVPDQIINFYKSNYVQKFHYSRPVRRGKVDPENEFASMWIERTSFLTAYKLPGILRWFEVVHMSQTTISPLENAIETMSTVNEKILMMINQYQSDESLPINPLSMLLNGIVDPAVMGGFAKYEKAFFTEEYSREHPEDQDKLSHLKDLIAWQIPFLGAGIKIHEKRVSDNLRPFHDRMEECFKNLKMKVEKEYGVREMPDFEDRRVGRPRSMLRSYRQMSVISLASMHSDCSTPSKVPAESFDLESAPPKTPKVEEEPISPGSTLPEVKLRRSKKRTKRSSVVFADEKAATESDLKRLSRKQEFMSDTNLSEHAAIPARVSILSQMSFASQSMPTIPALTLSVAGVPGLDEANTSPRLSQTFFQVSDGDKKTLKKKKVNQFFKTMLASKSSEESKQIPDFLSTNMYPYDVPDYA

T5 sequence (Q60610 other isoform, or with tags, fused parts or gaps limits assumed): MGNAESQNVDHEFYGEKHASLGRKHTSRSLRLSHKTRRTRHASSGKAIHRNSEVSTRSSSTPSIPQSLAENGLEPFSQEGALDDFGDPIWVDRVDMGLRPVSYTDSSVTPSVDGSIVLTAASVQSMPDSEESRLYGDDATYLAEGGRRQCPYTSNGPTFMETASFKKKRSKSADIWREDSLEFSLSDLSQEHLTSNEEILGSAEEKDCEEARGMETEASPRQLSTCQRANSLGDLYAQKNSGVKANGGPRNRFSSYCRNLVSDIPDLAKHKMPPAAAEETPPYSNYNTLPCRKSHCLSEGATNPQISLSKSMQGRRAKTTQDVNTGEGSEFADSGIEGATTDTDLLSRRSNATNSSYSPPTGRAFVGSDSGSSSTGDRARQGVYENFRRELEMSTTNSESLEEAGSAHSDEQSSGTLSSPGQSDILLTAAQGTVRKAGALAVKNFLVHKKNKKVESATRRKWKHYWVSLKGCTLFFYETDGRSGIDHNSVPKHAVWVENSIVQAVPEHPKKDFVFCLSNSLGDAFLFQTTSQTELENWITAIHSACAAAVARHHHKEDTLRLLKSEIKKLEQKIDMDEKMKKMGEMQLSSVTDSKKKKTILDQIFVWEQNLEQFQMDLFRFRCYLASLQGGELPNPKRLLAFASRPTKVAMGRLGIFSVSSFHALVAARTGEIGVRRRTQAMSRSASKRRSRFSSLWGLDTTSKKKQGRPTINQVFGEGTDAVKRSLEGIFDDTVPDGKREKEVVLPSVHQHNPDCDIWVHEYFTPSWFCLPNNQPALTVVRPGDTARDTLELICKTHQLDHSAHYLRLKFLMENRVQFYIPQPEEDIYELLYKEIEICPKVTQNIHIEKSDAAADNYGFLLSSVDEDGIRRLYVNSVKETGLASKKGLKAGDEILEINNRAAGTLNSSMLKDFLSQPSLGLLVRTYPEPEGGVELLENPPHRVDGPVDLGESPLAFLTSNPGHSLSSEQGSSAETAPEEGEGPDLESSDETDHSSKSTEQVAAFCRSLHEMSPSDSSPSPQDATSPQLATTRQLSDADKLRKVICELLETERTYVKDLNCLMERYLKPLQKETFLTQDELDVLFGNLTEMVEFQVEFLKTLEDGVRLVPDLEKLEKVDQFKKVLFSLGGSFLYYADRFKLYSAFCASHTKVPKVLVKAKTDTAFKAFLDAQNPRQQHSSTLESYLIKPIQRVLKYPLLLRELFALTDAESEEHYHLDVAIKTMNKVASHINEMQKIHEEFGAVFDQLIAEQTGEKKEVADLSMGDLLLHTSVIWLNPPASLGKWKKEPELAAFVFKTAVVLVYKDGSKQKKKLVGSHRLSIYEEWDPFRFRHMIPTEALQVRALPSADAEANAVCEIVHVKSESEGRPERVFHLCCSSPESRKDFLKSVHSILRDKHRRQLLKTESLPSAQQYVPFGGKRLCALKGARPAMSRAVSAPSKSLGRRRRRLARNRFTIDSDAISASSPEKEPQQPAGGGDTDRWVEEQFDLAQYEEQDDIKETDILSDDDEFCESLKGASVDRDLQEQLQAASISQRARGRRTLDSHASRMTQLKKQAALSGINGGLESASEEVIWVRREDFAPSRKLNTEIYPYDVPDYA
T2 sequence (Q8C3J5 other isoform, or with tags, fused parts or gaps G32E G32E limits assumed): as the sequence (Q8C3J5 other isoform, or with tags, fused parts or gaps limits assumed) above, with G32E counted along it
T1 sequence (Q8C3J5 other isoform, or with tags, fused parts or gaps mutant): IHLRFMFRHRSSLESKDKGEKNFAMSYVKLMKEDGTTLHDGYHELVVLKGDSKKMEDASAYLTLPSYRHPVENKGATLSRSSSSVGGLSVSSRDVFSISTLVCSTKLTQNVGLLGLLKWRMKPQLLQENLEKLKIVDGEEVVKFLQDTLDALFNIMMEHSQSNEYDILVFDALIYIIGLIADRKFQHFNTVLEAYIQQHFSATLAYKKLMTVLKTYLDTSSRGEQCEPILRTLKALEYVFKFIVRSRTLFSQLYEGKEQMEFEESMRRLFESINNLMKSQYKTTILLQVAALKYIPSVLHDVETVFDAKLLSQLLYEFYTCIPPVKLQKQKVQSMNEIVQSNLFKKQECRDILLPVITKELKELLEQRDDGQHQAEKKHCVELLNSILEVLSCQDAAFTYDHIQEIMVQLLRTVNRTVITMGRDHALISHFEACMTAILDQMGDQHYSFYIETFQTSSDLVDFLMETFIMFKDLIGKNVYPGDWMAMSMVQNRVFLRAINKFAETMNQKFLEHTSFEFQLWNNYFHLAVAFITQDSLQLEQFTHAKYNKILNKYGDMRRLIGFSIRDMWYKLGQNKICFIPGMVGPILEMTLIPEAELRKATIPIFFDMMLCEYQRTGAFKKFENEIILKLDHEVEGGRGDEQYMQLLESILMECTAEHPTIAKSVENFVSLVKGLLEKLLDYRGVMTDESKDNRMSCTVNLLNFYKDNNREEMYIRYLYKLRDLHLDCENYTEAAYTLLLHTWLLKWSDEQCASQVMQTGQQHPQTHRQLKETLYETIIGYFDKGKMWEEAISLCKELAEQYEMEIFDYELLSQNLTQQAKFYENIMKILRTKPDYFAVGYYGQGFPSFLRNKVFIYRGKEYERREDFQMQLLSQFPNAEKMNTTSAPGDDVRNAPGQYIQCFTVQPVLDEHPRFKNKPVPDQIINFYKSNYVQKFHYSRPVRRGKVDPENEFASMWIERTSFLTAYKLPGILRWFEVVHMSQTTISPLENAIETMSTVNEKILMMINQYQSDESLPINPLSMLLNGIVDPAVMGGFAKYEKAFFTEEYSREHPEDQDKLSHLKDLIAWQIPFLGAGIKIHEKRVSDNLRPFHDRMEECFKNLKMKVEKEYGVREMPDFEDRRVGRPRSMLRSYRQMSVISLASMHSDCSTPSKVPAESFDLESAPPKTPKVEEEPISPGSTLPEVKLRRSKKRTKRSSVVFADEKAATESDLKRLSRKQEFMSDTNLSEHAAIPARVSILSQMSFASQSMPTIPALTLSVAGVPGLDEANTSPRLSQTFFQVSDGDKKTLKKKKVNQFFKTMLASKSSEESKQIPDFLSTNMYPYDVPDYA
T4 sequence (Q8C3J5 other isoform, or with tags, fused parts or gaps F63E F63E limits assumed): as the sequence (Q8C3J5 other isoform, or with tags, fused parts or gaps limits assumed) above, with F63E counted along it
T3 sequence (Q8C3J5 other isoform, or with tags, fused parts or gaps P60E P60E limits assumed): as the sequence (Q8C3J5 other isoform, or with tags, fused parts or gaps limits assumed) above, with P60E counted along it

B1: full length ELMO1 with V5 tag (PcDNA ELMO1-V5) (other)
chain: MPPPSDIVKVAIEWPGAYPKLMEIDQKKPLSAIIKEVCDGWSLANHEYFALQHADSSNFYITEKNRNEIKNGTILRLTTSPAQNAQQLHERIQSSSMDAKLEALKDLASLSRDVTFAQEFINLDGISLLTQMVESGTERYQKLQKIMKPCFGDMLSFTLTAFVELMDHGIVSWDTFSVAFIKKIASFVNKSAIDISILQRSLAILESMVLNSHDLYQKVAQEITIGQLIPHLQGTDQEIQTYTIAVINALFLKAPDERRQEMANILAQKQLRYIILTHVIRAQRAINNEMAHQLYVLQVLTFNLLEDRMMTKMDPQDQAQRDIIFELRRIAFDAESEPNNSSGSMEKRKSMYTRDYKKLGFINHVNPAMDFTQTPPGMLALDNMLYFAKHHQDAYIRIVLENSSREDKHECPFGRSSIELTKMLCEILKVGELPSETCNDFHPMFFTHDRSFEEFFCICIQLLNKTWKEMRATSEDFNKVMQVVKEQVMRALTTKPSSLDQFKSKLQNLSYTEILKIRQSERMNQEDFQSRPILELKEKIQPEILELIKQQRLNRLVEGTCFRKLNARRRQDKFWYCRLSPNHKVLHYGDLEESPQGEVPHDSLQDKLPVADIKAVVTGKDCPHMKEKGALKQNKEVLELAFSILYDSNCQLNFIAPDKHEYCIWTDGLNALLGKDMMSDLTRNDLDTLLSMEIKLRLLDLENIQIPDAPPPIPKEPSNYDFVYDCN
notes: Expressed in 293T cells; also called mouse ELMO1; not shown: V5 (and His) tag from the PcDNA V5-His vector
In the case of B1, the binding result (in experiment [1]; with DOCK2 SH3 mutant G32E-HA; with DOCK2 SH3 mutant P60E-HA; with DOCK2 SH3 mutant F63E-HA) was “no binding” each time.

B2: ELMO1-del1-V5 (amino acid residues 147-727 of ELMO1) (other)
chain: MKPCFGDMLSFTLTAFVELMDHGIVSWDTFSVAFIKKIASFVNKSAIDISILQRSLAILESMVLNSHDLYQKVAQEITIGQLIPHLQGTDQEIQTYTIAVINALFLKAPDERRQEMANILAQKQLRYIILTHVIRAQRAINNEMAHQLYVLQVLTFNLLEDRMMTKMDPQDQAQRDIIFELRRIAFDAESEPNNSSGSMEKRKSMYTRDYKKLGFINHVNPAMDFTQTPPGMLALDNMLYFAKHHQDAYIRIVLENSSREDKHECPFGRSSIELTKMLCEILKVGELPSETCNDFHPMFFTHDRSFEEFFCICIQLLNKTWKEMRATSEDFNKVMQVVKEQVMRALTTKPSSLDQFKSKLQNLSYTEILKIRQSERMNQEDFQSRPILELKEKIQPEILELIKQQRLNRLVEGTCFRKLNARRRQDKFWYCRLSPNHKVLHYGDLEESPQGEVPHDSLQDKLPVADIKAVVTGKDCPHMKEKGALKQNKEVLELAFSILYDSNCQLNFIAPDKHEYCIWTDGLNALLGKDMMSDLTRNDLDTLLSMEIKLRLLDLENIQIPDAPPPIPKEPSNYDFVYDCN
notes: Expressed in 293T cells; also called ELMO1-dell; PcDNA ELMO1-del1-V5; not shown: V5 (and His) tag from the PcDNA V5His vector
For the molecule B2, in experiment [2], the binding result is reported as “no binding”.

B3: ELMO1-del8-V5 (amino acid residues 345-727 of ELMO1) (other)
chain: MEKRKSMYTRDYKKLGFINHVNPAMDFTQTPPGMLALDNMLYFAKHHQDAYIRIVLENSSREDKHECPFGRSSIELTKMLCEILKVGELPSETCNDFHPMFFTHDRSFEEFFCICIQLLNKTWKEMRATSEDFNKVMQVVKEQVMRALTTKPSSLDQFKSKLQNLSYTEILKIRQSERMNQEDFQSRPILELKEKIQPEILELIKQQRLNRLVEGTCFRKLNARRRQDKFWYCRLSPNHKVLHYGDLEESPQGEVPHDSLQDKLPVADIKAVVTGKDCPHMKEKGALKQNKEVLELAFSILYDSNCQLNFIAPDKHEYCIWTDGLNALLGKDMMSDLTRNDLDTLLSMEIKLRLLDLENIQIPDAPPPIPKEPSNYDFVYDCN
notes: Expressed in 293T cells; also called PcDNA ELMO1-del8-V5; not shown: V5 (and His) tag from the PcDNA V5His vector
Take B3: the binding result in experiment [2] is on record as “no binding”.

B4: ELMO1-del10-V5 (amino acid residues 1-613 of ELMO1) (other)
chain: MPPPSDIVKVAIEWPGAYPKLMEIDQKKPLSAIIKEVCDGWSLANHEYFALQHADSSNFYITEKNRNEIKNGTILRLTTSPAQNAQQLHERIQSSSMDAKLEALKDLASLSRDVTFAQEFINLDGISLLTQMVESGTERYQKLQKIMKPCFGDMLSFTLTAFVELMDHGIVSWDTFSVAFIKKIASFVNKSAIDISILQRSLAILESMVLNSHDLYQKVAQEITIGQLIPHLQGTDQEIQTYTIAVINALFLKAPDERRQEMANILAQKQLRYIILTHVIRAQRAINNEMAHQLYVLQVLTFNLLEDRMMTKMDPQDQAQRDIIFELRRIAFDAESEPNNSSGSMEKRKSMYTRDYKKLGFINHVNPAMDFTQTPPGMLALDNMLYFAKHHQDAYIRIVLENSSREDKHECPFGRSSIELTKMLCEILKVGELPSETCNDFHPMFFTHDRSFEEFFCICIQLLNKTWKEMRATSEDFNKVMQVVKEQVMRALTTKPSSLDQFKSKLQNLSYTEILKIRQSERMNQEDFQSRPILELKEKIQPEILELIKQQRLNRLVEGTCFRKLNARRRQDKFWYCRLSPNHKVLHYGDLEESPQGEVPHDSLQDKLPVADI
notes: Expressed in 293T cells; also called PcDNA ELMO1-del10-V5; PcDNA ELMO1-del10; not shown: V5 (and His) tag from the PcDNA V5His vector
Consider B4, for which the binding result in experiment [3] is listed as “no binding”.

The values are drawn from patent US20060234294A1 (JAPAN SCIENCE AND TECHNOLOGY AGENCY, published 2006).
